Laboratory results as given in patent US11306156.
Blank lines part the entries; values can stand above or below the substance they belong to.

Legend:
[1] = target: D3H44 light chain Q124R_Q160K_T178R, N-terminal HA or FLAG tag; experiment: LCCA, SPR of light chain tags, L1:L2 DNA 1:3 norm. to 1:1; other light chain m19
[2] = target: D3H44 light chain Q124R_T178R, N-terminal HA or FLAG tag; experiment: as above
[3] = target: D3H44 light chain Q124R_Q160K_T178R, N-terminal HA or FLAG tag; experiment: LCCA, SPR of light chain tags, L1:L2 DNA 1:9 norm. to 1:1; other light chain m21
[4] = target: D3H44 light chain Q124E_V133E, N-terminal HA or FLAG tag; experiment: LCCA, SPR of light chain tags, L1:L2 DNA 1:3 norm. to 1:1; other light chain m17
[5] = target: D3H44 light chain Q124E_Q160E_T178E, N-terminal HA or FLAG tag; experiment: as above
[6] = target: D3H44 light chain Q124E_T178E_T180E, N-terminal HA or FLAG tag; experiment: as above
[7] = target: D3H44 light chain Q124E_T178E, N-terminal HA or FLAG tag; experiment: as above
[8] = target: D3H44 light chain S131E, N-terminal HA or FLAG tag; experiment: as above
[9] = target: D3H44 light chain Q124R_Q160K_T178R, N-terminal HA or FLAG tag; experiment: LCCA, SPR of light chain tags, L1:L2 DNA 1:3 norm. to 1:1; other light chain m26
[10] = target: D3H44 light chain S131E, N-terminal HA or FLAG tag; experiment: LCCA, SPR of light chain tags, L1:L2 DNA 1:3 norm. to 1:1; other light chain m14
[11] = target: D3H44 light chain Q124E_V133E, N-terminal HA or FLAG tag; experiment: LCCA, SPR of light chain tags, L1:L2 DNA 1:9 norm. to 1:1; other light chain m17
[12] = target: D3H44 light chain Q124E_T178E_T180E, N-terminal HA or FLAG tag; experiment: as above
[13] = target: D3H44 light chain Q124R_Q160K_T178R, N-terminal HA or FLAG tag; experiment: LCCA, SPR of light chain tags, L1:L2 DNA 1:9 norm. to 1:1; other light chain m18
[14] = target: D3H44 light chain Q124R_Q160K_T178R, N-terminal HA or FLAG tag; experiment: LCCA, SPR of light chain tags, L1:L2 DNA 1:3 norm. to 1:1; other light chain m23
[15] = target: D3H44 light chain Q124R_Q160K_T178R, N-terminal HA or FLAG tag; experiment: LCCA, SPR of light chain tags, L1:L2 DNA 1:3 norm. to 1:1; other light chain m18
[16] = target: D3H44 light chain Q124R_Q160K_T178R, N-terminal HA or FLAG tag; experiment: LCCA, SPR of light chain tags, L1:L2 DNA 1:3 norm. to 1:1; other light chain m21
[17] = target: D3H44 light chain Q124R_T178R, N-terminal HA or FLAG tag; experiment: LCCA, SPR of light chain tags, L1:L2 DNA 1:3 norm. to 1:1; other light chain m25
[18] = target: D3H44 light chain Q124E_S176L_T180E, N-terminal HA or FLAG tag; experiment: LCCA, SPR of light chain tags, L1:L2 DNA 1:9 norm. to 1:1; other light chain m14
[19] = target: D3H44 light chain Q124E_S131T_T178Y_T180E, N-terminal HA or FLAG tag; experiment: as above
[20] = target: D3H44 light chain Q124R_T178R, N-terminal HA or FLAG tag; experiment: LCCA, SPR of light chain tags, L1:L2 DNA 1:9 norm. to 1:1; other light chain m16
[21] = target: D3H44 light chain Q124R_T178R, N-terminal HA or FLAG tag; experiment: LCCA, SPR of light chain tags, L1:L2 DNA 1:3 norm. to 1:1; other light chain m15
[22] = target: D3H44 light chain Q124R_T178R, N-terminal HA or FLAG tag; experiment: LCCA, SPR of light chain tags, L1:L2 DNA 1:3 norm. to 1:1; other light chain m16
[23] = target: D3H44 light chain Q124E_S176L_T180E, N-terminal HA or FLAG tag; experiment: LCCA, SPR of light chain tags, L1:L2 DNA 1:3 norm. to 1:1; other light chain m14
[24] = target: D3H44 light chain Q124E_S131T_T178F_T180E, N-terminal HA or FLAG tag; experiment: as above
[25] = target: D3H44 light chain Q124E_V133Y_T180E, N-terminal HA or FLAG tag; experiment: as above
[26] = target: D3H44 light chain Q124E_S131T_T178Y_T180E, N-terminal HA or FLAG tag; experiment: as above
[27] = target: D3H44 light chain Q124E_V133W_T180E, N-terminal HA or FLAG tag; experiment: as above
[28] = target: D3H44 light chain Q124R_T178R, N-terminal HA or FLAG tag; experiment: LCCA, SPR of light chain tags, L1:L2 DNA 1:3 norm. to 1:1; other light chain m22
[29] = target: D3H44 light chain Q124R_T178R, N-terminal HA or FLAG tag; experiment: LCCA, SPR of light chain tags, L1:L2 DNA 1:9 norm. to 1:1; other light chain m15
[30] = target: D3H44 light chain Q124R_T178R, N-terminal HA or FLAG tag; experiment: LCCA, SPR of light chain tags, L1:L2 DNA 1:3 norm. to 1:1; other light chain m20
[31] = target: D3H44 light chain Q124E_S176L_T180E, N-terminal HA or FLAG tag; experiment: LCCA, SPR of light chain tags, L1:L2 DNA 1:3 norm. to 1:1; other light chain m17
[32] = target: D3H44 light chain Q124R_Q160K_T178R, N-terminal HA or FLAG tag; experiment: LCCA, SPR of light chain tags, L1:L2 DNA 1:3 norm. to 1:1; other light chain m16
[33] = target: D3H44 light chain Q124E_V133D_S176L, N-terminal HA or FLAG tag; experiment: LCCA, SPR of light chain tags, L1:L2 DNA 1:3 norm. to 1:1; other light chain m17
[34] = target: D3H44 light chain Q124E_V133D_S176L, N-terminal HA or FLAG tag; experiment: LCCA, SPR of light chain tags, L1:L2 DNA 1:9 norm. to 1:1; other light chain m17
[35] = target: D3H44 light chain Q124R_Q160K_T178R, N-terminal HA or FLAG tag; experiment: LCCA, SPR of light chain tags, L1:L2 DNA 1:9 norm. to 1:1; other light chain m27
[36] = target: D3H44 light chain Q124R_Q160K_T178R, N-terminal HA or FLAG tag; experiment: LCCA, SPR of light chain tags, L1:L2 DNA 1:3 norm. to 1:1; other light chain m27
[37] = target: D3H44 light chain Q124R, N-terminal HA or FLAG tag; experiment: LCCA, SPR of light chain tags, L1:L2 DNA 1:9 norm. to 1:1; other light chain m28
[38] = target: D3H44 light chain Q124R, N-terminal HA or FLAG tag; experiment: LCCA, SPR of light chain tags, L1:L2 DNA 1:3 norm. to 1:1; other light chain m28
[39] = target: D3H44 light chain Q124E_V133D, N-terminal HA or FLAG tag; experiment: LCCA, SPR of light chain tags, L1:L2 DNA 1:9 norm. to 1:1; other light chain m24
[40] = target: D3H44 light chain Q124E_V133D, N-terminal HA or FLAG tag; experiment: LCCA, SPR of light chain tags, L1:L2 DNA 1:3 norm. to 1:1; other light chain m24
[41] = target: D3H44 light chain Q124E_V133E, N-terminal HA or FLAG tag; experiment: as above
[42] = target: D3H44 light chain Q124R, N-terminal HA or FLAG tag; experiment: LCCA, SPR of light chain tags, L1:L2 DNA 1:3 norm. to 1:1; other light chain m18

Substance: D3H44 Fab heavy chain L143E_K145T_Q179E_S188L, ABD2-His6 tagged
H2L2:H2L1 normalized median ratio [17]: 75% | H1L1:H1L2 normalized median ratio [18]: 10% | H1L1:H1L2 normalized median ratio [19]: 21% | H1L1:H1L2 normalized median ratio [20]: 90% | H1L1:H1L2 normalized median scalar value ln(r1/f1) [20]: 2.25 | H1L1:H1L2 normalized median ratio [21]: 83% | H1L1:H1L2 normalized median scalar value ln(r1/f1) [21]: 1.62 | H1L1:H1L2 normalized median ratio [22]: 87% | H1L1:H1L2 normalized median scalar value ln(r1/f1) [22]: 1.9 | H1L1:H1L2 normalized median ratio [23]: 13% | H1L1:H1L2 normalized median ratio [24]: 23% | H2L2:H2L1 normalized median ratio [25]: 29% | H1L1:H1L2 normalized median ratio [26]: 17% | H2L2:H2L1 normalized median ratio [27]: 25% | H2L2:H2L1 normalized median ratio [28]: 71% | H1L1:H1L2 normalized median ratio [29]: 79% | H1L1:H1L2 normalized median scalar value ln(r1/f1) [29]: 1.33 | H1L1:H1L2 normalized median ratio [30]: 77% | H1L1:H1L2 normalized median scalar value ln(r1/f1) [30]: 1.19

Substance: D3H44 Fab heavy chain Q179R, ABD2-His6 tagged
H2L2:H2L1 normalized median ratio [18]: 85% | H2L2:H2L1 normalized median ratio [19]: 91% | H2L2:H2L1 normalized median ratio [3]: 8% | H2L2:H2L1 normalized median ratio [20]: 15% | H2L2:H2L1 normalized median ratio [31]: 98% | H2L2:H2L1 normalized median ratio [5]: 97% | H2L2:H2L1 normalized median ratio [6]: 93% | H2L2:H2L1 normalized median ratio [7]: 97% | H2L2:H2L1 normalized median ratio [21]: 6% | H2L2:H2L1 normalized median ratio [32]: 2% | H2L2:H2L1 normalized median ratio [22]: 7% | H2L2:H2L1 normalized median ratio [9]: 3% | H2L2:H2L1 normalized median ratio [23]: 93% | H2L2:H2L1 normalized median ratio [24]: 96% | H2L2:H2L1 normalized median ratio [26]: 94% | H2L2:H2L1 normalized median ratio [12]: 92% | H2L2:H2L1 normalized median ratio [29]: 9% | H2L2:H2L1 normalized median ratio [30]: 4% | H2L2:H2L1 normalized median ratio [14]: 3% | H2L2:H2L1 normalized median ratio [16]: 7%

Substance: D3H44 Fab heavy chain L143K_D146G, ABD2-His6 tagged
H2L2:H2L1 normalized median ratio [37]: 12% | H2L2:H2L1 normalized median ratio [38]: 9% | H2L2:H2L1 normalized median ratio [39]: 88% | H2L2:H2L1 normalized median ratio [40]: 91%

Next, values leading:

H1L1:H1L2 normalized median ratio [1]: 47% | H1L1:H1L2 normalized median scalar value ln(r1/f1) [1]: -0.14 | H1L1:H1L2 normalized median ratio [2]: 46% | H1L1:H1L2 normalized median scalar value ln(r1/f1) [2]: -0.16 | H1L1:H1L2 normalized median ratio [3]: 81% | H1L1:H1L2 normalized median scalar value ln(r1/f1) [3]: 1.44 | H1L1:H1L2 normalized median ratio [4]: 21% | H1L1:H1L2 normalized median ratio [5]: 41% | H1L1:H1L2 normalized median ratio [6]: 18% | H1L1:H1L2 normalized median ratio [7]: 41% | H1L1:H1L2 normalized median ratio [8]: 53% | H1L1:H1L2 normalized median ratio [9]: 59% | H1L1:H1L2 normalized median scalar value ln(r1/f1) [9]: 0.36 | H1L1:H1L2 normalized median ratio [10]: 54% | H1L1:H1L2 normalized median ratio [11]: 13% | H1L1:H1L2 normalized median ratio [12]: 19% | H1L1:H1L2 normalized median ratio [13]: 37% | H1L1:H1L2 normalized median ratio [14]: 59% | H1L1:H1L2 normalized median scalar value ln(r1/f1) [14]: 0.37 | H1L1:H1L2 normalized median ratio [15]: 79% | H1L1:H1L2 normalized median scalar value ln(r1/f1) [15]: 1.35 | H1L1:H1L2 normalized median ratio [16]: 82% | H1L1:H1L2 normalized median scalar value ln(r1/f1) [16]: 1.52
Substance: D3H44 Fab heavy chain L143E_K145T, ABD2-His6 tagged

H2L2:H2L1 normalized median ratio [19]: 89% | H2L2:H2L1 normalized median ratio [1]: 1% | H2L2:H2L1 normalized median ratio [2]: 2% | H2L2:H2L1 normalized median ratio [7]: 98% | H2L2:H2L1 normalized median ratio [8]: 99% | H2L2:H2L1 normalized median ratio [21]: 5% | H2L2:H2L1 normalized median ratio [9]: 2% | H2L2:H2L1 normalized median ratio [24]: 96% | H2L2:H2L1 normalized median ratio [26]: 95% | H2L2:H2L1 normalized median ratio [10]: 98% | H2L2:H2L1 normalized median ratio [29]: 11% | H2L2:H2L1 normalized median ratio [30]: 4%
Substance: D3H44 Fab heavy chain S186K, ABD2-His6 tagged

H2L2:H2L1 normalized median ratio [33]: 94% | H2L2:H2L1 normalized median ratio [34]: 91% | H2L2:H2L1 normalized median ratio [35]: 9% | H2L2:H2L1 normalized median ratio [36]: 6%
Substance: D3H44 Fab heavy chain L143K, ABD2-His6 tagged

H2L2:H2L1 normalized median ratio [4]: 96% | H2L2:H2L1 normalized median ratio [11]: 93% | H2L2:H2L1 normalized median ratio [41]: 96% | H2L2:H2L1 normalized median ratio [13]: 7% | H2L2:H2L1 normalized median ratio [15]: 4% | H2L2:H2L1 normalized median ratio [42]: 4%
Substance: D3H44 Fab heavy chain L143R, ABD2-His6 tagged
